Experimental data published in patent US20140031283A1, “ANTICANCER FUSION PROTEIN” (ADAMED SP. Z O.O., priority 2011, published 2014).

Tests used:
A549 = assay: MTT cytotoxicity test, A549 (human lung cancer); assay type: cell-based; details: for A549 mean (IC50): Table 4, mean/SD part; for A549 IC50: continuous incubation over 72 h, test MTT
From the text: (§1) MTT assay is a colorimetric assay used to measure proliferation, viability and cytotoxicity of cells. It consists in decomposition of a yellow tetrazolium salt MTT (4,5-dimethyl-2-thiazolyl)-2,5-diphenyltetrazolium bromide) to the water-insoluble purple dye formazan by mitochondrial enzyme succinate-tetrazolium reductase 1. MTT reduction occurs only in living cells. Data analysis consists in determining IC50 concentration of the protein (in ng/ml), at which the 50% reduction in the number of cells occurs in the population treated compared to control cells. Results were analyzed using GraphPad Prism 5.0 software. The test was performed according to the literature descriptions (Cells, J E, (1998). Cell Biology, a Laboratory Handbook, second edition, Academic Press, San Diego; Yang, Y., Koh, L W, Tsai, J H., (2004); Involvement of viral and chemical factors with oral cancer in Taiwan, Jpn J Clin Oncol, 34 (4), 176-183). Cell culture medium was diluted to a defined density (10^4-10^5 cells per 100 μl). Then 100 μl of appropriately diluted cell suspension was applied to a 96-well plate in triplicates. Thus prepared cells were incubated for 24 h at 37° C. in 5% or 10% CO2, depending on the medium used, and then to the cells (in 100 μl of medium) further 100 μl of the medium containing various concentrations of tested proteins were added. In the case of combination hTRAIL114-281 and p21WAF effector protein, 100 μl of the medium containing mixture of hTRAIL114-281 and p21WAF effector protein in molar ratio 1:1 was added. After incubation of the cells with tested proteins over the period of next 72 hours, which is equivalent to 3-4 times of cell division, the medium with the test protein was added with […] of MTT working solution [5 mg/ml], and incubation was continued for 3 h at 37° C. in 5% CO2. Then the medium with MTT solution was removed, and formazan crystals were dissolved by adding 100 μl of DMSO. After stirring, the absorbance was measured at 570 nm (reference filter 690 nm).
(§2) The results of in vitro cytotoxicity tests are summarized as IC50 values (ng/ml), which corresponds to the protein concentration at which the cytotoxic effect of fusion proteins is observed at the level of 50% with respect to control cells treated only with solvent. Each experiment represents the average value of at least two independent experiments performed in triplicates. As a criterion of lack of activity of protein preparations the IC50 limit of 2000 ng/ml was adopted.

MES-SA = assay: MTT cytotoxicity test, MES-SA (human uterine sarcoma); assay type: cell-based; details: for MES-SA mean (IC50): Table 4, mean/SD part; for MES-SA IC50: continuous incubation over 72 h, test MTT
From the text: as §1, §2

MES-SA/Dx5 = assay: MTT cytotoxicity test, MES-SA/Dx5 (multidrug-resistant human uterine sarcoma); assay type: cell-based; details: for MES-SA/Dx5 mean (IC50): Table 4, mean/SD part; for MES-SA/Dx5 IC50: continuous incubation over 72 h, test MTT
From the text: as §1, §2
Cells selected for this test included tumor cell lines that are naturally resistant to TRAIL protein (the criterion of natural resistance to TRAIL: IC50 for TRAIL protein >2000), as well as tumor cell lines sensitive to TRAIL protein and resistant to doxorubicin line MES-SA/DX5 as a cancer line resistant to conventional anticancer medicaments.

SK-MES-1 = assay: MTT cytotoxicity test, SK-MES-1 (human lung cancer); assay type: cell-based; details: for SK-MES-1 mean (IC50): Table 4, mean/SD part; for SK-MES-1 IC50: continuous incubation over 72 h, test MTT
From the text: as §1, §2

MCF10A = assay: MTT cytotoxicity test, MCF10A (mammary epithelial cells); assay type: cell-based; details: for MCF10A mean (IC50): Table 4, mean/SD part; for MCF10A IC50: continuous incubation over 72 h, test MTT
From the text: as §1, §2

HCT-116 = details: for HCT116 mean (IC50): Table 4, mean/SD part; for HCT116 IC50: continuous incubation over 72 h, test MTT
Procedure: Data analysis consists in determining IC50 concentration of the protein (in ng/ml), at which the 50% reduction in the number of cells occurs in the population treated compared to control cells. Results were analyzed using GraphPad Prism 5.0 software. […] Cell culture medium was diluted to a defined density (10^4-10^5 cells per 100 μl). Then 100 μl of appropriately diluted cell suspension was applied to a 96-well plate in triplicates. Thus prepared cells were incubated for 24 h at 37° C. in 5% or 10% CO2, depending on the medium used, and then to the cells (in 100 μl of medium) further 100 μl of the medium containing various concentrations of tested proteins were added. […] After incubation of the cells with tested proteins over the period of next 72 hours, which is equivalent to 3-4 times of cell division, the medium with the test protein was added with 20 ml of MTT working solution [5 mg/ml], and incubation was continued for 3 h at 37° C. in 5% CO2. Then the medium with MTT solution was removed, and formazan crystals were dissolved by adding 100 μl of DMSO. After stirring, the absorbance was measured at 570 nm (reference filter 690 nm).

[1] = test system: TRAIL sensitive cell lines; assay: in vitro cytotoxicity tests, TRAIL sensitive cell lines; assay type: cell-based; details: continuous incubation over 72 h, test MTT; versus rhTRAIL 95-281 (cell line not given)
From the text: as §1, with “nm). […]” for “nm).”

Row | Molecule | HCT116 mean (IC50) (HCT-116) [mg/L] | HCT116 IC50 (HCT-116) [mg/L] | A549 mean (IC50) (A549) [mg/L] | MES-SA mean (IC50) (MES-SA) [mg/L] | MES-SA/Dx5 mean (IC50) (MES-SA/Dx5) [mg/L] | SK-MES-1 mean (IC50) (SK-MES-1) [mg/L] | MCF10A mean (IC50) (MCF10A) [mg/L] | A549 IC50 (A549) [mg/L] | MES-SA IC50 (MES-SA) [mg/L] | MES-SA/Dx5 IC50 (MES-SA/Dx5) [mg/L] | SK-MES-1 IC50 (SK-MES-1) [mg/L] | MCF10A IC50 (MCF10A) [mg/L] | IC50 [1] [mg/L]
1 | Ex. 5: fusion protein: 34-amino acid fragment of human fetoprotein at N-terminus of TRAIL95-281, uPA and MMP cleavage sites (protein, synthesized, a fusion protein comprising: a fragment of TRAIL protein, a fragment of human fetoprotein and cleavage sites recognized by uPA and MMP., fusion protein: 34-amino acid fragment of human fetoprotein at N-terminus of TRAIL95-281, uPA and MMP cleavage sites) LSEDKLLACGEGAADIIIGHLCIRHEMTPVNPGRVVRPLGLAGTSEETISTVQEKQQNISPLVRERGPQRVAAHITGTRGRSNTLSSPNSKNEKALGRKINSWESSRSGHSFLSNLHLRNGELVIHEKGFYYIYSQTYFRFQEEIKENTKNDKQMVQYIYKYTSYPDPILLMKSARNSCWSKDAEYGLYSIYQGGIFELKENDRIFVSVTNEHLIDMDHEASFFGAFLVG | 0.1798 | – | 3 | 0.095 | 0.01116 | 0.07965 | 8.949 | – | – | – | – | – | –
2 | Ex. 4: fusion protein: 34-amino acid fragment of human fetoprotein at C-terminus of TRAIL121-281, MMP and uPA cleavage sites (protein, synthesized, a fusion protein comprising: a fragment of TRAIL protein, a fragment of human fetoprotein and cleavage sites recognized by uPA and MMP., fusion protein: 34-amino acid fragment of human fetoprotein at C-terminus of TRAIL121-281, MMP and uPA cleavage sites) RVAAHITGTRGRSNTLSSPNSKNEKALGRKINSWESSRSGHSFLSNLHLRNGELVIHEKGFYYIYSQTYFRFQEEIKENTKNDKQMVQYIYKYTSYPDPILLMKSARNSCWSKDAEYGLYSIYQGGIFELKENDRIFVSVTNEHLIDMDHEASFFGAFLVGPLGLAGRVVRLSEDKLLACGEGAADIIIGHLCIRHEMTPVNPG | – | 0.03225 | – | – | – | – | – | >2 | 0.2053 | 0.01136 | 0.01011 | >2 | –

Now from value to molecule, other results behind:

Row | HCT116 mean (IC50) (HCT-116) [mg/L] | HCT116 IC50 (HCT-116) [mg/L] | Molecule | A549 mean (IC50) (A549) [mg/L] | MES-SA mean (IC50) (MES-SA) [mg/L] | MES-SA/Dx5 mean (IC50) (MES-SA/Dx5) [mg/L] | SK-MES-1 mean (IC50) (SK-MES-1) [mg/L] | MCF10A mean (IC50) (MCF10A) [mg/L] | A549 IC50 (A549) [mg/L] | MES-SA IC50 (MES-SA) [mg/L] | MES-SA/Dx5 IC50 (MES-SA/Dx5) [mg/L] | SK-MES-1 IC50 (SK-MES-1) [mg/L] | MCF10A IC50 (MCF10A) [mg/L] | IC50 [1] [mg/L]
3 | 0.6035 | – | Ex. 15: fusion protein: 15-amino acid fragment of PH domain of TCL1 protein with antennapedia sequence at C-terminus of TRAIL121-281, MMP and uPA sites (protein, synthesized, a fusion protein comprising: a fragment of TRAIL protein, a fragment of PH domain of TCL1 protein - acting as Akt coactivator, cleavage sites recognized by uPA and MMP, an antennapedia transporting domain and a glycine-cysteine linker.) RVAAHITGTRGRSNTLSSPNSKNEKALGRKINSWESSRSGHSFLSNLHLRNGELVIHEKGFYYIYSQTYFRFQEEIKENTKNDKQMVQYIYKYTSYPDPILLMKSARNSCWSKDAEYGLYSIYQGGIFELKENDRIFVSVTNEHLIDMDHEASFFGAFLVGGSPLGLAGRVVRDRQIKIWFQNRRMKWKKAVTDHPDRLWAWEKF | 1 | 0.123 | 0.3289 | 0.0784 | 1 | – | – | – | – | – | –
4 | – | 0.08429 | Ex. 11: fusion protein: 18-amino acid peptide DD2 from DOC-2/DAB2 with 7 Arg transporting domain at C-terminus of TRAIL95-281, MMP and uPA sites (protein, synthesized, a fusion protein comprising: a fragment of TRAIL protein, a fragment of peptide DD2 derived from DOC-2/DAB2, cleavage sites recognized by uPA and MMP, an arginine transporting domain and a cysteine-alanine-glycine steric linker., fusion protein: 18-amino acid peptide DD2 from DOC-2/DAB2 with 7 Arg transporting domain at C-terminus of TRAIL95-281, MMP and uPA sites) TSEETISTVQEKQQNISPLVRERGPQRVAAHITGTRGRSNTLSSPNSKNEKALGRKINSWESSRSGHSFLSNLHLRNGELVIHEKGFYYIYSQTYFRFQEEIKENTKNDKQMVQYIYKYTSYPDPILLMKSARNSCWSKDAEYGLYSIYQGGIFELKENDRIFVSVTNEHLIDMDHEASFFGAFLVGCAACAAACGGGPLGLAGRVVRRRRRRRRGGGFQLRQPPLVPSRKGE | – | – | – | – | – | 0.257 | 0.1044 | 0.00885 | 0.03348 | 0.1333 | 0.063
5 | 0.01585 | – | Ex. 16: fusion protein: hexapeptide inhibitor of E2F with antennapedia sequence at N-terminus of TRAIL121-281, uPA and MMP sites (protein, synthesized, a fusion protein comprising: a fragment of TRAIL protein, a peptide inhibitor of E2F, cleavage sites recognized by urokinase uPA and metalloprotease MMP and an antennapedia transporting domain.) FWLRFTKPRRPYRVVRPLGLAGRVAAHITGTRGRSNTLSSPNSKNEKALGRKINSWESSRSGHSFLSNLHLRNGELVIHEKGFYYIYSQTYFRFQEEIKENTKNDKQMVQYIYKYTSYPDPILLMKSARNSCWSKDAEYGLYSIYQGGIFELKENDRIFVSVTNEHLIDMDHEASFFGAFLVG | 0.04285 | 0.00846 | 0.001421 | 0.003045 | 0.09228 | – | – | – | – | – | –
6 | – | 0.0635 | Ex. 7: fusion protein: 8-amino acid fragment of human fetoprotein at C-terminus of TRAIL95-281, cysteine-alanine linker, MMP and uPA cleavage sites (protein, synthesized, a fusion protein comprising: a fragment of TRAIL protein, a fragment of human fetoprotein, cleavage sites recognized by uPA and MMP and a flexible cysteine - alanine linker., fusion protein: 8-amino acid fragment of human fetoprotein at C-terminus of TRAIL95-281, cysteine-alanine linker, MMP and uPA cleavage sites) TSEETISTVQEKQQNISPLVRERGPQRVAAHITGTRGRSNTLSSPNSKNEKALGRKINSWESSRSGHSFLSNLHLRNGELVIHEKGFYYIYSQTYFRFQEEIKENTKNDKQMVQYIYKYTSYPDPILLMKSARNSCWSKDAEYGLYSIYQGGIFELKENDRIFVSVTNEHLIDMDHEASFFGAFLVGCAACAAACPLGLAGRVVREMTPVNPG | – | – | – | – | – | >2 | >2 | 0.02211 | 0.0366 | >2 | 0.105
